Among the data in patent US20220267475A1 (published 2022) are EC50 values, retold here.

The target of assay [1] is T1, TIGIT antigen expressed on CHO-K1 cells (UniProt Q495A1 22-244).
T1 chain: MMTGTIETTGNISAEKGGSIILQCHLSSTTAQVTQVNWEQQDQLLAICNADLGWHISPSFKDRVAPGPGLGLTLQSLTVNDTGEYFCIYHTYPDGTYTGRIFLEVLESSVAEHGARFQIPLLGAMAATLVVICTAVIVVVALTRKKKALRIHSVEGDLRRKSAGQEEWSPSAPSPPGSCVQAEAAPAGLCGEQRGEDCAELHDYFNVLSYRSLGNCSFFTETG
Kind of assay: flow cytometry. For orientation: In flow cytometry, cells or beads pass a laser one at a time.

Assay [2] has as its target CD47 antigen expressed on CHO-K1 cells (UniProt Q08722 19-323). Kind of assay: flow.

Sequence of CD47 antigen expressed on CHO-K1 cells (Q08722 19-323): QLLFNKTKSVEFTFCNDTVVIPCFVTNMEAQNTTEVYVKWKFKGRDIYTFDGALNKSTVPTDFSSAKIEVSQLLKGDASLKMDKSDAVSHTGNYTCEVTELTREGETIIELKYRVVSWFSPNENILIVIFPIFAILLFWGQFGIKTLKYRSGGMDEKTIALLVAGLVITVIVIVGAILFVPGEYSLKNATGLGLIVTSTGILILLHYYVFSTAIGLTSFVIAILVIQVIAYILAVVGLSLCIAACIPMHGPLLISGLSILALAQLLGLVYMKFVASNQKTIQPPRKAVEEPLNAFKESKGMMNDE

B1: TIGIT-G9-LN (bispecific antibody)
heavy: not shown
light: EVQLVESGGGLVQPGGSLRLSCAASGYKYGVYSMGWFRQAPGKGLEGVSAICSGGRTTYSDSVKGRFTISRDNSNQILYLQMNSLRAEDTAVYYCAARPLWTGDCDLSSSWYKTWGQGTLVTVSSGGGGSGGGSEIVLTQSPATLSLSPGERATLSCRASENVGTYISWYQQKPGQAPRLLIYGASNRYTGIPARFSGSGSGTDFTLTISSLEPEDFAVYYCGESYGHLYTFGGGTKVEIKRTVAAPSVFIFPPSDEQLKSGTASVVCLLNNFYPREAKVQWKVDNALQSGNSQESVTEQDSKDSTYSLSSTLTLSKADYEKHKVYACEVTHQGLSSPVTKSFNRGEC
The EC50 is the concentration giving half of the maximal effect. Read a low EC50 as greater potency. For the molecule B1, the EC50 in assay [1] was determined as 0.155 nM.

B2: TIGIT-G9-LC (bispecific antibody)
heavy: not shown
light: EIVLTQSPATLSLSPGERATLSCRASENVGTYISWYQQKPGQAPRLLIYGASNRYTGIPARFSGSGSGTDFTLTISSLEPEDFAVYYCGESYGHLYTFGGGTKVEIKRTVAAPSVFIFPPSDEQLKSGTASVVCLLNNFYPREAKVQWKVDNALQSGNSQESVTEQDSKDSTYSLSSTLTLSKADYEKHKVYACEVTHQGLSSPVTKSFNRGECGGGGSGGGSEVQLVESGGGLVQPGGSLRLSCAASGYKYGVYSMGWFRQAPGKGLEGVSAICSGGRTTYSDSVKGRFTISRDNSNQILYLQMNSLRAEDTAVYYCAARPLWTGDCDLSSSWYKTWGQGTLVTVSS
Consider B2, for which the EC50 in assay [1] amounted to 0.658 nM.

B3: TIGIT-G9-HN (bispecific antibody)
heavy: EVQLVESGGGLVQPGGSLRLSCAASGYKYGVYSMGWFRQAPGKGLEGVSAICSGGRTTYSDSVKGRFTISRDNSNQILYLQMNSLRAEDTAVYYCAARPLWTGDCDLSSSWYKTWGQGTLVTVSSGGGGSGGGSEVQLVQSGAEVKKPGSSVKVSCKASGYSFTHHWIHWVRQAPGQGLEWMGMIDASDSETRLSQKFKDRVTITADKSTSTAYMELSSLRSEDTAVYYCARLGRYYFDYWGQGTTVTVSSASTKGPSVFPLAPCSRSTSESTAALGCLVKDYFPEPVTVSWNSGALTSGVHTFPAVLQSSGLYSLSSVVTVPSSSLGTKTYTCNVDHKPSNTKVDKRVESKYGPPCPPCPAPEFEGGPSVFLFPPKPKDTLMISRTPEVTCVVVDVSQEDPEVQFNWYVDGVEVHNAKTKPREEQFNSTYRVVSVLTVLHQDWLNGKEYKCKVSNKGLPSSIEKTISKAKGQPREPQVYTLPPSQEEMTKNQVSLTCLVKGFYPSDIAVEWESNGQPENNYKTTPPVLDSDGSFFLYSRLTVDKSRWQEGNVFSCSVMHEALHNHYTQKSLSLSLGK
light: EIVLTQSPATLSLSPGERATLSCRASENVGTYISWYQQKPGQAPRLLIYGASNRYTGIPARFSGSGSGTDFTLTISSLEPEDFAVYYCGESYGHLYTFGGGTKVEIKRTVAAPSVFIFPPSDEQLKSGTASVVCLLNNFYPREAKVQWKVDNALQSGNSQESVTEQDSKDSTYSLSSTLTLSKADYEKHKVYACEVTHQGLSSPVTKSFNRGEC
In the case of B3, the EC50 in assay [1] was 0.168 nM; in assay [2], 0.852 nM.

B4: TIGIT-E-HC (bispecific antibody)
heavy: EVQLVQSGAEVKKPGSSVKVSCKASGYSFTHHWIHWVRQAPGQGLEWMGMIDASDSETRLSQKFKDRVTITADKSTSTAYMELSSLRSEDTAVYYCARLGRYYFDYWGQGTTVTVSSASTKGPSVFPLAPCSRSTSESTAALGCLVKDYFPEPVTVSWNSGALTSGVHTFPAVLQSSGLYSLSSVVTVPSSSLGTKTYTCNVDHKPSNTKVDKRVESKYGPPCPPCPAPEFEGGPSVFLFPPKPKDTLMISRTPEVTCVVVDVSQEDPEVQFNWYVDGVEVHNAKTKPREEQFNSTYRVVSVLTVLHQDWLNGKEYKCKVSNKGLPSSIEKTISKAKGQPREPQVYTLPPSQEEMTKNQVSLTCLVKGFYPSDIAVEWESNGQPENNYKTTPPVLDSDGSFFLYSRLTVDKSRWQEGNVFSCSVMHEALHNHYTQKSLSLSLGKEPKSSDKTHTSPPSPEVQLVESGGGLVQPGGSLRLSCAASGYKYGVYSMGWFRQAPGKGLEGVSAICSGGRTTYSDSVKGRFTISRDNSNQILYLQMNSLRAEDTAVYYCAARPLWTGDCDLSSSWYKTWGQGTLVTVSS
light: EIVLTQSPATLSLSPGERATLSCRASENVGTYISWYQQKPGQAPRLLIYGASNRYTGIPARFSGSGSGTDFTLTISSLEPEDFAVYYCGESYGHLYTFGGGTKVEIKRTVAAPSVFIFPPSDEQLKSGTASVVCLLNNFYPREAKVQWKVDNALQSGNSQESVTEQDSKDSTYSLSSTLTLSKADYEKHKVYACEVTHQGLSSPVTKSFNRGEC
Take B4: in assay [1], the EC50 was 0.52 nM.

B5: TIGIT-E-HN (bispecific antibody)
heavy: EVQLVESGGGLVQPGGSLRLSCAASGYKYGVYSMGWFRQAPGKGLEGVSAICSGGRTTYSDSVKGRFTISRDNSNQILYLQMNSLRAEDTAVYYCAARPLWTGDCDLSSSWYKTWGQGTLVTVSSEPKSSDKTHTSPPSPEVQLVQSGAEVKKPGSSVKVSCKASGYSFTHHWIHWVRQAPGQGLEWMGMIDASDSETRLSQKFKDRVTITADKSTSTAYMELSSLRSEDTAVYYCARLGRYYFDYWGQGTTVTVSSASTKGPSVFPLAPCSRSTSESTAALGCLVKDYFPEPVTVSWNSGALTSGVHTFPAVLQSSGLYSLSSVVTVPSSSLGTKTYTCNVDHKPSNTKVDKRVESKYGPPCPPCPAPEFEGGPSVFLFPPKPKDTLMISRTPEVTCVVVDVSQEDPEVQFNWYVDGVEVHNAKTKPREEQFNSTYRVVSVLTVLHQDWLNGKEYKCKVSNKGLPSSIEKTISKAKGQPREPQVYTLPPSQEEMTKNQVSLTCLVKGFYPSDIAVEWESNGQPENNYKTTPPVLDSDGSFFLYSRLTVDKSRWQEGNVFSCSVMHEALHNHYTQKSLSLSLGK
light: EIVLTQSPATLSLSPGERATLSCRASENVGTYISWYQQKPGQAPRLLIYGASNRYTGIPARFSGSGSGTDFTLTISSLEPEDFAVYYCGESYGHLYTFGGGTKVEIKRTVAAPSVFIFPPSDEQLKSGTASVVCLLNNFYPREAKVQWKVDNALQSGNSQESVTEQDSKDSTYSLSSTLTLSKADYEKHKVYACEVTHQGLSSPVTKSFNRGEC
Consider B5, for which the EC50 in assay [1] worked out at 0.132 nM; in assay [2], 0.65 nM.

B6: TIGIT-G9-HC (bispecific antibody)
heavy: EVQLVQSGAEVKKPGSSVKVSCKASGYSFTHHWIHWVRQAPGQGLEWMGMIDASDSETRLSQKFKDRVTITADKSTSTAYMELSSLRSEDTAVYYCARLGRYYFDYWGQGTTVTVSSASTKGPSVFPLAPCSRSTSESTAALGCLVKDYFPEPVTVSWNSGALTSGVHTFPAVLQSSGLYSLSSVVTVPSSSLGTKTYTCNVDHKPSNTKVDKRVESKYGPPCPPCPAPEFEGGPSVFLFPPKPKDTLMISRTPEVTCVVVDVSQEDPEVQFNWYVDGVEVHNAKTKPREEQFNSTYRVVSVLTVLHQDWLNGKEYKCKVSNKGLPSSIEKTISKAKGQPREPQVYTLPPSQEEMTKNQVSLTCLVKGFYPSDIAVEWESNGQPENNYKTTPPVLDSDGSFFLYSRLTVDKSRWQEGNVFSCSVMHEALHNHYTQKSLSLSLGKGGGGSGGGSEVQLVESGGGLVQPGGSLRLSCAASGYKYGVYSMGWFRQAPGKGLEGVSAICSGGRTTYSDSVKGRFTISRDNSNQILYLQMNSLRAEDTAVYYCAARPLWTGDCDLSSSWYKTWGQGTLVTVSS
light: EIVLTQSPATLSLSPGERATLSCRASENVGTYISWYQQKPGQAPRLLIYGASNRYTGIPARFSGSGSGTDFTLTISSLEPEDFAVYYCGESYGHLYTFGGGTKVEIKRTVAAPSVFIFPPSDEQLKSGTASVVCLLNNFYPREAKVQWKVDNALQSGNSQESVTEQDSKDSTYSLSSTLTLSKADYEKHKVYACEVTHQGLSSPVTKSFNRGEC
As to B6, the EC50 is 0.429 nM in assay [1] and 0.686 nM in assay [2].

B7: anti-CD47 monoclonal antibody (antibody, V domains shown)
VH: EVQLVQSGAEVKKPGSSVKVSCKASGYSFTHHWIHWVRQAPGQGLEWMGMIDASDSETRLSQKFKDRVTITADKSTSTAYMELSSLRSEDTAVYYCARLGRYYFDYWGQGTTVTVSS
VL: EIVLTQSPATLSLSPGERATLSCRASENVGTYISWYQQKPGQAPRLLIYGASNRYTGIPARFSGSGSGTDFTLTISSLEPEDFAVYYCGESYGHLYTFGGGTKVEIKR
Turning to B7, the EC50 in assay [1] was roughly 0.443 nM; in assay [2], 0.00843 nM.

B8: TIGIT-E-LC (bispecific antibody)
heavy: not shown
light: EIVLTQSPATLSLSPGERATLSCRASENVGTYISWYQQKPGQAPRLLIYGASNRYTGIPARFSGSGSGTDFTLTISSLEPEDFAVYYCGESYGHLYTFGGGTKVEIKRTVAAPSVFIFPPSDEQLKSGTASVVCLLNNFYPREAKVQWKVDNALQSGNSQESVTEQDSKDSTYSLSSTLTLSKADYEKHKVYACEVTHQGLSSPVTKSFNRGECEPKSSDKTHTSPPSPEVQLVESGGGLVQPGGSLRLSCAASGYKYGVYSMGWFRQAPGKGLEGVSAICSGGRTTYSDSVKGRFTISRDNSNQILYLQMNSLRAEDTAVYYCAARPLWTGDCDLSSSWYKTWGQGTLVTVSS
B8 displayed an EC50 in assay [1] of 0.334 nM.

B9: TIGIT-E-LN (bispecific antibody)
heavy: not shown
light: EVQLVESGGGLVQPGGSLRLSCAASGYKYGVYSMGWFRQAPGKGLEGVSAICSGGRTTYSDSVKGRFTISRDNSNQILYLQMNSLRAEDTAVYYCAARPLWTGDCDLSSSWYKTWGQGTLVTVSSEPKSSDKTHTSPPSPEIVLTQSPATLSLSPGERATLSCRASENVGTYISWYQQKPGQAPRLLIYGASNRYTGIPARFSGSGSGTDFTLTISSLEPEDFAVYYCGESYGHLYTFGGGTKVEIKRTVAAPSVFIFPPSDEQLKSGTASVVCLLNNFYPREAKVQWKVDNALQSGNSQESVTEQDSKDSTYSLSSTLTLSKADYEKHKVYACEVTHQGLSSPVTKSFNRGEC
B9 registered an EC50 in assay [1] of 0.0757 nM.
